Kd data for one molecule are collected here from article PMC8307404, “Crystal Structure-Guided Design of Bisubstrate Inhibitors and Photoluminescent Probes for Protein Kinases of the PIM Family” (Molecules, 2021).

Square brackets hold non-standard residues; d marks the D form. Ends that are not written are not given here.

Targets include protein kinase PIM-1 (human, UniProt P11309 1-313); protein kinase PIM-2 (human, UniProt Q9P1W9 1-311); protein kinase PIM-3 (human, UniProt Q86V86 1-326).
Common to all, as to test: fluorescence polarisation + other: time-gated luminescence intensity (TGLI); binding/displacement assay in solution with the probes ARC-1451, ARC-1188 or ARC-583; 20 min at 30 °C; 50 mM HEPES pH 7.4, 150 mM NaCl, 5 mM dithiothreitol, 0.5 mg/mL BSA, 0.005% Tween-20; N = 2
What all share (conditions): both partners purified
For orientation: In fluorescence polarisation assays a small probe gives low polarisation when free and higher when bound to something large.

Assay [1] addresses catalytic subunit α of protein kinase A (human, UniProt P17612 1-351).

In general, Kd refers to the concentration at which binding is half-saturated.

Sequence of protein kinase PIM-2 (Q9P1W9 whole entry): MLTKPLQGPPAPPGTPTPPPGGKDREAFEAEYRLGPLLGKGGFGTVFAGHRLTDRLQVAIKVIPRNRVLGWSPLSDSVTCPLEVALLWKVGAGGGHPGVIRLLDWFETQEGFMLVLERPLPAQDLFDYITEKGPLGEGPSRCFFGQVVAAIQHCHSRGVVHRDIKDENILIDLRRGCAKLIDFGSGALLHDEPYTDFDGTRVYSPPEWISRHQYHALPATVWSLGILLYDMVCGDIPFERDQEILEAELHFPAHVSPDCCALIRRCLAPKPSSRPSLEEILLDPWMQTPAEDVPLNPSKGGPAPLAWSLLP
Sequence of protein kinase PIM-1 (P11309 whole entry): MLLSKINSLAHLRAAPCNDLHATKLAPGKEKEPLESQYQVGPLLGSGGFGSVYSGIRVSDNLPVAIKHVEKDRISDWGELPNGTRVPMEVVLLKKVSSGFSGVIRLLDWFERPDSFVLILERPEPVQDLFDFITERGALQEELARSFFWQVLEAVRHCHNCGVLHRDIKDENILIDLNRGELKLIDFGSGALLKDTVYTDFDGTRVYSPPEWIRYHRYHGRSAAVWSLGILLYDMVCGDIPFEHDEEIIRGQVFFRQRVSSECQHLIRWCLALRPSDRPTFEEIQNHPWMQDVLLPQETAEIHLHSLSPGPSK

B1: PIM peptide, (D-Arg)2-Gly-D-Arg-D-Lys-NH2 (peptide)
peptide: [dR][dR]G[dR][dK]-NH2
modifications: N-terminus assumed
SMILES: N=C(N)NCCC[C@@H](N)C(=O)N[C@H](CCCNC(=N)N)C(=O)NCC(=O)N[C@H](CCCNC(=N)N)C(=O)N[C@H](CCCCN)C(N)=O
notes: printed in three-letter code as (D-Arg)2-Gly-D-Arg-D-Lys-NH2; All chiral residues are D-amino acids; This is the peptide part of compounds 1-5, without the adenosine analogue moiety and the linker; also called designed peptide mimetic moiety of compounds 1-5; source: synthetic peptide (Fmoc solid-phase synthesis on Rink amide resin, HPLC purified)
With B1, the Kd in assay [1] is above 89 µM; with protein kinase PIM-1 it was above 11.5 µM; with protein kinase PIM-2, above 46 µM; with protein kinase PIM-3 it was above 16.4 µM.
